US20250041410A1 (Y MABS THERAPEUTICS, published 2025)

Molecular target: the molecule itself
Experiment: mass photometry (Refeyn) after dilution in PBS and 60 min at 37 C; self-association of the chain into dimer and tetramer
Method: For this example, a Refeyn Mass photometer (Refeyn Ltd, Oxford UK) was used according to the manufacturer's instructions, with the following settings:
The GD2-SADA construct was diluted in PBS, and incubated for 60 minutes at 37° C. before measuring the size distribution. Following dilutions were made: 150 nM, 100 nM, 50 nM, 10 nM, 5 nM, 1 nM and 100 PM and subjected to Mass photometry using the Refeyn Mass photometer.

B1: GD2-SADA complex (other)
chain: EIVMTQTPATLSVSAGERVTITCKASQSVSNDVTWYQQKPGQAPRLLIYSASNRYSGVPARFSGSGYGTEFTFTISSVQSEDFAVYFCQQDYSSFGCGTKLEIKRGGGGSGGGGSGGGGSGGGGSGGGGSGGGGSQVQLVESGPGVVQPGRSLRISCAVSGFSVTNYGVHWVRQPPGKCLEWLGVIWAGGITNYNSAFMSRLTISKDNSKNTVYLQMNSLRAEDTAMYYCASRGGHYGYALDYWGQGTLVTVSSGGGGSGGGGSGGGGSGGGGSHVQLVESGGGLVQPGGSLRLSCAASGFSLTDYGVHWVRQAPGKGLEWLGVIWSGGGTAYNTALISRFTISRDNSKNTLYLQMNSLRAEDTAVYYCARRGSYPYNYFDAWGCGTLVTVSSGGGGSGGGGSGGGGSGGGGSGGGGSGGGGSQAVVTQEPSLTVSPGGTVTLTCGSSTGAVTASNYANWVQQKPGQCPRGLIGGHNNRPPGVPARFSGSLLGGKAALTLLGAQPEDEAEYYCALWYSDHWVIGGGTKLTVLGTPLGDTTHTSGKPLDGEYFTLQIRGRERFEMFRELNEALELKDAQAGKEPGGSGGA
notes: A single polypeptide: anti-GD2 scFv, humanized C825 (anti-DOTA) scFv and the p53 tetramerization (SADA) domain; It is written here as one chain that associates with itself; In the mass photometry assay it was a concentration-dependent mixture of monomer, dimer, tetramer and higher multimers; also called GD2-SADA construct; GD2-SADA conjugate
binding result: binds
